According to PMC10880428 (Protein Science : A Publication of the Protein Society, 2024):

Tests used:
[1] = target: T1, EtgA residues 18–152 with C-terminal 6xHis-tag (enteropathogenic Escherichia coli); assay: differential scanning fluorimetry
T1 chain: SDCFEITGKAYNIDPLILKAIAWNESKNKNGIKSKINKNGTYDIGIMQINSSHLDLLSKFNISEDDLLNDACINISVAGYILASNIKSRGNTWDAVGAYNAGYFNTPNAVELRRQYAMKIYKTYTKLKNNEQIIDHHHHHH

[2] = target: T1, EtgA residues 18–152 with C-terminal …; assay: MST

TAGVSSPEQVLIEEIKKRHLAT [EscI peptide comprising EscI residues 66–87] was tested, and the “increase in Tm of EtgA (250 and 500 μM peptide)” value [1] was 2 °C and the Kd [2] was 385 ± 35 µM.
